Measured values: the supplement of paper PMC10724198
± gives the standard deviation of the averaged measurements.

How the values were obtained:
Saccharomyces cerevisiae [1] = test: protein stability index of tFT-peptide fusion in wild type (PSI (0-1 scale)); higher = more stable (slower turnover); conditions: genetic background: wild type
Experimental: (§1)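 MPS profiling in S. cerevisiae of two library types built from selected 12-aa C-degron peptides (IN1, IN2, LN1, LN3, VN2, R1-R5, W1-W3, Atg1 and Rpa12 C-termini): saturation mutagenesis libraries and C-terminal +1 capping libraries (13 aa). Each peptide is fused to the C-terminus of a sfGFP-mCherry timer, after a GGGS linker. Cells are FACS-sorted into 8 mCherry/sfGFP bins and sequenced. PSI runs from 0 (unstable) to 1 (stable), measured once in wild type and in the das1Δ or doa10Δ background.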

Saccharomyces cerevisiae [2] = test: protein stability index of tFT-peptide fusion in deletion strain of DAS1 (PSI (0-1 scale)); higher = more stable (slower turnover)
Experimental: as §1

Saccharomyces cerevisiae [3] = test: protein stability index of tFT-peptide fusion (C-terminal peptide) (PSI (0-1 scale)); higher = more stable (slower turnover); conditions: temperature: 30 C
Experimental: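 MPS profiling in S. cerevisiae of the yeast C-terminome library: the last 12 aa of each annotated ORF are fused to the C-terminus of a sfGFP-mCherry timer, after a GGGS linker. Cells are FACS-sorted into 8 mCherry/sfGFP bins and deep-sequenced. PSI runs from 0 (unstable) to 1 (stable); wild type and das1Δ backgrounds, two technical replicates each.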

[4] = genetic background: das1 deletion
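Throughout, for protein stability index of tFT-peptide fusion in deletion strain of DAS1: PSI is a weighted mean of each variant's read distribution over the sorted stability bins, computed only for variants having over 10 reads in total.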
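Throughout, for protein stability index of tFT-peptide fusion in wild type: PSI derived as read-weighted mean over the 8 sorting bins, only variants exceeding 10 total reads kept, mCherry placed adjacent to the peptide and sfGFP distal.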

| Sequence | protein stability index (Saccharomyces cerevisiae [1]) | protein stability index (Saccharomyces cerevisiae [2]) | protein stability index (Saccharomyces cerevisiae [3]; [4]) | protein stability index (Saccharomyces cerevisiae [3]; genetic background: wild type) |
| --- | --- | --- | --- | --- |
| MLIQPLPVQFLN | 0.0562 | 0.654 | – | – |
| QDKRNHLIKLLN | 0.0816 | 0.592 | – | – |
| RTIQPLPVQFLN | 0.101 | 0.629 | – | – |
| FSMRWTDRYWVN | 0.0929 | 0.568 | – | – |
| PDKRNHLIILLN | 0.107 | 0.66 | – | – |
| CTSCGYKWRTNN | 0.153 | 0.659 | – | – |
| LVVYLNCVACIN | 0.0331 | 0.0265 | – | – |
| RLIQPLPWQFLN | 0.0707 | 0.699 | – | – |
| LVVYLSSVACIN | 0.0245 | 0.0579 | – | – |
| CTSCGYKFRWNN | 0.49 | 0.737 | – | – |
| CWSCGYKFRTNN | 0.167 | 0.714 | – | – |
| VRGAVGGWRLVW | 0.714 | 0.671 | – | – |
| CTSCGYKFRTNNI | 0.716 | 0.699 | – | – |
| PSLAGSFWRVVG | 0.152 | 0.667 | – | – |
| ADWRVGLWRGAS | 0.519 | 0.729 | – | – |
| ARWRVGLWAGAS | 0.599 | 0.627 | – | – |
| RLIQWLPVQFLN | 0.071 | 0.613 | – | – |
| CTSCEYKFRTNN | 0.457 | 0.684 | – | – |
| LVVYLSIVACIN | 0.0584 | 0.0849 | – | – |
| PDKRNHRIKLLN | 0.159 | 0.661 | – | – |
| VRWAVGGWRLVG | 0.0824 | 0.685 | – | – |
| VRGAVAGWRLVG | 0.156 | 0.655 | – | – |

| Sequence | protein stability index (Saccharomyces cerevisiae [1]) | protein stability index (Saccharomyces cerevisiae [2]) | protein stability index (Saccharomyces cerevisiae [3]; [4]) | protein stability index (Saccharomyces cerevisiae [3]; genetic background: wild type) |
| --- | --- | --- | --- | --- |
| FSIRWTFRYWVN | 0.0207 | 0.335 | – | – |
| KKHKKGQKQKIL | 0.222 | 0.595 | – | – |
| RLIQPLPVQFLNM | 0.584 | 0.655 | – | – |
| CTSCGYKFRYNN | 0.369 | 0.702 | – | – |
| PDKRNQLIKLLN | 0.0747 | 0.633 | – | – |
| LKILRQPMNHQN | 0.658 | 0.68 | – | – |
| GTVCYGMIEIFF [VTC5 C-terminal 12 aa] | – | – | 0.596 ± 0.009 | 0.616 ± 0.013 |
| NFAMLGLGPNWE [YUH1 C-terminal 12 aa] | – | – | 0.722 ± 0.0065 | 0.725 ± 0.057 |
| KTHTEYGYVMVA [YGR137W C-terminal 12 aa] | – | – | 0.618 ± 0.012 | 0.5401 ± 0.0042 |
| SFTHQEQDTEMN [NAB2 C-terminal 12 aa] | – | – | 0.708 ± 0.032 | 0.736 ± 0.019 |
| PHEAALPKPSFV [EDC2 C-terminal 12 aa] | – | – | 0.7069 ± 0.0042 | 0.719 ± 0.038 |
| LSGAPQVTKKQN [POM33 C-terminal 12 aa] | – | – | 0.691 ± 0.013 | 0.674 ± 0.016 |
| VSKTYEEHIETV [JEN1 C-terminal 12 aa] | – | – | 0.688 ± 0.023 | 0.692 ± 0.013 |
| YLKEYEFSQKDF [PFS1 C-terminal 12 aa] | – | – | 0.725 ± 0.01 | 0.734 ± 0.025 |
| EEEAGYSDVEME [UTP5 C-terminal 12 aa] | – | – | 0.6936 ± 0.005 | 0.698 ± 0.013 |
| WEVVTGIRKLLI [PEX12 C-terminal 12 aa] | – | – | 0.68 ± 0.008 | 0.401 ± 0.014 |
| SRIKWHVGTAYS [HHY1 C-terminal 12 aa] | – | – | 0.6943 ± 0.0031 | 0.6653 ± 0.0066 |
| QTAISMNDEDDA [GVP36 C-terminal 12 aa] | – | – | 0.712 ± 0.013 | 0.7006 ± 0.0018 |
| VFLELKKAQRWA [API2 C-terminal 12 aa] | – | – | 0.703 ± 0.019 | 0.686 ± 0.011 |
| ENVLFYIGRVNK [COB C-terminal 12 aa] | – | – | 0.726 ± 0.026 | 0.669 ± 0.017 |
| FPLLMSEIEDFR [YNL067W-A C-terminal 12 aa] | – | – | 0.718 ± 0.019 | 0.695 ± 0.033 |
| YAYMLYYERVNK [UBP16 C-terminal 12 aa] | – | – | 0.675 ± 0.02 | 0.675 ± 0.041 |

| Sequence | protein stability index (Saccharomyces cerevisiae [1]) | protein stability index (Saccharomyces cerevisiae [2]) | protein stability index (Saccharomyces cerevisiae [3]; [4]) | protein stability index (Saccharomyces cerevisiae [3]; genetic background: wild type) |
| --- | --- | --- | --- | --- |
| DKLAQRLRALRG [DID2 C-terminal 12 aa] | – | – | 0.699 ± 0.01 | 0.684 ± 0.048 |
| YAPDVVRSLENL [RRP42 C-terminal 12 aa] | – | – | 0.7271 ± 0.0014 | 0.695 ± 0.043 |
| FPRNLAKSVTVE [GFA1 C-terminal 12 aa] | – | – | 0.599 ± 0.0094 | 0.593 ± 0.011 |
| AVYEELVHELFH [PSP1 C-terminal 12 aa] | – | – | 0.72 ± 0.021 | 0.675 ± 0.031 |
| SNRTLSNETDAL [ACE2 C-terminal 12 aa] | – | – | 0.7072 ± 0.0038 | 0.701 ± 0.016 |
| RAKTMNRSQSHV [PFK26 C-terminal 12 aa] | – | – | 0.697 ± 0.0089 | 0.7255 ± 0.0013 |
| LVKCASATIMLN [MIN3 C-terminal 12 aa] | – | – | 0.704 ± 0.021 | 0.483 ± 0.022 |
| SDVISEESYNEA [SVF1 C-terminal 12 aa] | – | – | 0.7069 ± 0.0026 | 0.694 ± 0.0074 |
| LNIGGNLVTPLC [YSH1 C-terminal 12 aa] | – | – | 0.719 ± 0.011 | 0.671 ± 0.037 |
| KETTTRNYRGTC [GAD1 C-terminal 12 aa] | – | – | 0.71 ± 0.029 | 0.707 ± 0.032 |
| CLILSQYSILMD [ATG18 C-terminal 12 aa] | – | – | 0.631 ± 0.038 | 0.616 ± 0.045 |
| EKLQLWHSMSND [YOR008C-A C-terminal 12 aa] | – | – | 0.698 ± 0.0035 | 0.72 ± 0.033 |
| DSEEKKSKKSKK [CBF5 C-terminal 12 aa] | – | – | 0.669 ± 0.056 | 0.6785 ± 0.0045 |
| LEHMLEGKEQDE [PRM5 C-terminal 12 aa] | – | – | 0.707 ± 0.025 | 0.751 ± 0.036 |
| KGNLPGVKKGIW [MRP2 C-terminal 12 aa] | – | – | 0.687 ± 0.012 | 0.668 ± 0.011 |
| VYVENPIRLFHH [ADE16 C-terminal 12 aa] | – | – | 0.712 ± 0.0083 | 0.7235 ± 0.0019 |
| INKRAVSNSKDV [RFT1 C-terminal 12 aa] | – | – | 0.692 ± 0.026 | 0.727 ± 0.027 |
| HTSVKALQRMTW [CTH1 C-terminal 12 aa] | – | – | 0.7271 ± 0.0051 | 0.6829 ± 0.0024 |
| FLRNFKDNRFLQ [YOR121C C-terminal 12 aa] | – | – | 0.726 ± 0.025 | 0.6968 ± 0.004 |
| PFALPSNDKVFF [ATO2 C-terminal 12 aa] | – | – | 0.698 ± 0.027 | 0.731 ± 0.0052 |
| SMKPFKRRKPFF [PRP16 C-terminal 12 aa] | – | – | 0.69 ± 0.0092 | 0.72 ± 0.0089 |
| LKMDKLGNYILE [RIO2 C-terminal 12 aa] | – | – | 0.717 ± 0.027 | 0.65 ± 0.043 |

| Sequence | protein stability index (Saccharomyces cerevisiae [1]) | protein stability index (Saccharomyces cerevisiae [2]) | protein stability index (Saccharomyces cerevisiae [3]; [4]) | protein stability index (Saccharomyces cerevisiae [3]; genetic background: wild type) |
| --- | --- | --- | --- | --- |
| VPQLHSFIAKEQ [RMD9 C-terminal 12 aa] | – | – | 0.699 ± 0.017 | 0.3 ± 0.0037 |
| NSAAFLLMSLKS [STB3 C-terminal 12 aa] | – | – | 0.674 ± 0.0086 | 0.679 ± 0.011 |
| KWGMEDSPPPYH [MDM34 C-terminal 12 aa] | – | – | 0.734 ± 0.028 | 0.6942 ± 0.0043 |
| HLQRCLSRGARR [SGF11 C-terminal 12 aa] | – | – | 0.698 ± 0.016 | 0.759 ± 0.039 |
| HEVDTEKINIFQ [YML003W C-terminal 12 aa] | – | – | 0.729 ± 0.018 | 0.697 ± 0.026 |
| LRRSFAIYTLGH [MCM2 C-terminal 12 aa] | – | – | 0.647 ± 0.027 | 0.6562 ± 0.0043 |
| LSHAQKEIYEFK [UTP25 C-terminal 12 aa] | – | – | 0.687 ± 0.011 | 0.691 ± 0.056 |
| LPSINTIFKDML [DOT6 C-terminal 12 aa] | – | – | 0.702 ± 0.03 | 0.731 ± 0.059 |
| SELQQIFPVSQQ [SPS100 C-terminal 12 aa] | – | – | 0.706 ± 0.011 | 0.689 ± 0.033 |
| VEIPTVESTKSG [RNA14 C-terminal 12 aa] | – | – | 0.696 ± 0.021 | 0.7544 ± 0.0014 |
| DLEFEEQREPKL [NVJ2 C-terminal 12 aa] | – | – | 0.719 ± 0.006 | 0.668 ± 0.011 |
| MKEKLKHSRKYM [SHY1 C-terminal 12 aa] | – | – | 0.7121 ± 0.0039 | 0.6685 ± 0.0027 |
| RDWSSFSKDYEI [PMS1 C-terminal 12 aa] | – | – | 0.7561 ± 0.0022 | 0.699 ± 0.0094 |
| TRKKGGRRGRRL [RPS14A C-terminal 12 aa] | – | – | 0.711 ± 0.011 | 0.676 ± 0.011 |
| LNNKDTKSVRHA [BRR6 C-terminal 12 aa] | – | – | 0.667 ± 0.029 | 0.711 ± 0.026 |
| NSLTQKYGTNNV [AAD15 C-terminal 12 aa] | – | – | 0.698 ± 0.016 | 0.697 ± 0.029 |
| VAKKRLSSRSKP [YNL162W-A C-terminal 12 aa] | – | – | 0.715 ± 0.05 | 0.658 ± 0.02 |
| ISRKAGHPAPAF [YML100W-A C-terminal 12 aa] | – | – | 0.717 ± 0.0091 | 0.704 ± 0.03 |
| KSDLISNIRQKI [RBH1 C-terminal 12 aa] | – | – | 0.716 ± 0.035 | 0.638 ± 0.037 |
| NTKHYNDTLLKQ [PHO11 C-terminal 12 aa] | – | – | 0.718 ± 0.0081 | 0.66 ± 0.0066 |
